Target: T1, NY-ESO-1 peptide on HLA-C*03:04 (human)
T1 peptide: LAMPFATPM
Test: multimer staining
Text: FIGS. 4A-4I are graphical representations of positive staining of Jurkat 76/CD8 cells transduced with C*03:04/NY-ESO-1₉₂₋₁₀₀ TCR genes with a cognate multimer. Jurkat 76/CD8 cells transduced with the C*03:04/NY-ESO-1₉₂₋₁₀₀ TCR (FIGS. 4B, 4E, and 4H) were stained with the C*03:04/NY-ESO-1₉₂₋₁₀₀ multimer (FIG. 4B). The C*03:04/HIV gag₁₆₄₋₁₇₂ multimer (FIGS. 4D, 4E, and 4F), C*07:02/MAGE-A1₂₈₉₋₂₉₇ TCR (clone CL2; FIGS. 4C, 4F, and 4I), and an unexchanged multimer (FIGS. 4G, 4H, and 4I) were employed as controls, as well as Jurkat 76/CD8 not transduced with a TCR (FIGS. 4A, 4D, and 4G). The percentage of multimer⁺ CD8⁺ cells is shown.
T cells (1×10⁵) were incubated for 30 minutes at 37° C. in the presence of 50 nM dasatinib (LC laboratories). The cells were then washed and incubated with 5-10 μg/ml of multimer for 30 minutes at room temperature, and R-phycoerythrin-conjugated AffiniPure Fab fragment goat anti-mouse IgG1 (Jackson ImmunoResearch Laboratories) was added for 15 minutes at 4° C. Next, the cells were washed three times and costained with an anti-CD8 mAb for 15 minutes at 4° C. Dead cells were finally discriminated using the LIVE/DEAD Fixable Dead Cell Stain kit.

B1: C*03:04/NY-ESO-1 92-100 TCR (TCR, V domains shown)
Valpha: AQSVTQPDIHITVSEGASLELRCNYSYGATPYLFWYVQSPGQGLQLLLKYFSGDTLVQGIKGFEAEFKRSQSSFNLRKPSVHWSDAAEYFCAGMDSNYQLIWGAGTKLIIKP
Vbeta: NAGVTQTPKFQVLKTGQSMTLQCAQDMNHNSMYWYRQDPGMGLRLIYYSASEGTTDKGEVPNGYNVSRLNKREFSLRLESAAPSQTSVYFCASSLPLGYEQYFGPGTRLTVT
B1: recognises.

Reference: patent publication US20220169695A1 (published 2022)
